Experimental data: publication PMC6771244, “VSTM2A suppresses colorectal cancer and antagonizes Wnt signaling receptor LRP6” (Theranostics, 2019)

T1: recombinant human LRP-6 Fc Chimera Protein (R&D, 1505-LR-025) (human, UniProt O75581 20-1370)
T1 construct: human LRP6 part of a commercial Fc chimera; also called LRP6 (1505-LR-025); source: bought: R&D
T1 sequence (looked up): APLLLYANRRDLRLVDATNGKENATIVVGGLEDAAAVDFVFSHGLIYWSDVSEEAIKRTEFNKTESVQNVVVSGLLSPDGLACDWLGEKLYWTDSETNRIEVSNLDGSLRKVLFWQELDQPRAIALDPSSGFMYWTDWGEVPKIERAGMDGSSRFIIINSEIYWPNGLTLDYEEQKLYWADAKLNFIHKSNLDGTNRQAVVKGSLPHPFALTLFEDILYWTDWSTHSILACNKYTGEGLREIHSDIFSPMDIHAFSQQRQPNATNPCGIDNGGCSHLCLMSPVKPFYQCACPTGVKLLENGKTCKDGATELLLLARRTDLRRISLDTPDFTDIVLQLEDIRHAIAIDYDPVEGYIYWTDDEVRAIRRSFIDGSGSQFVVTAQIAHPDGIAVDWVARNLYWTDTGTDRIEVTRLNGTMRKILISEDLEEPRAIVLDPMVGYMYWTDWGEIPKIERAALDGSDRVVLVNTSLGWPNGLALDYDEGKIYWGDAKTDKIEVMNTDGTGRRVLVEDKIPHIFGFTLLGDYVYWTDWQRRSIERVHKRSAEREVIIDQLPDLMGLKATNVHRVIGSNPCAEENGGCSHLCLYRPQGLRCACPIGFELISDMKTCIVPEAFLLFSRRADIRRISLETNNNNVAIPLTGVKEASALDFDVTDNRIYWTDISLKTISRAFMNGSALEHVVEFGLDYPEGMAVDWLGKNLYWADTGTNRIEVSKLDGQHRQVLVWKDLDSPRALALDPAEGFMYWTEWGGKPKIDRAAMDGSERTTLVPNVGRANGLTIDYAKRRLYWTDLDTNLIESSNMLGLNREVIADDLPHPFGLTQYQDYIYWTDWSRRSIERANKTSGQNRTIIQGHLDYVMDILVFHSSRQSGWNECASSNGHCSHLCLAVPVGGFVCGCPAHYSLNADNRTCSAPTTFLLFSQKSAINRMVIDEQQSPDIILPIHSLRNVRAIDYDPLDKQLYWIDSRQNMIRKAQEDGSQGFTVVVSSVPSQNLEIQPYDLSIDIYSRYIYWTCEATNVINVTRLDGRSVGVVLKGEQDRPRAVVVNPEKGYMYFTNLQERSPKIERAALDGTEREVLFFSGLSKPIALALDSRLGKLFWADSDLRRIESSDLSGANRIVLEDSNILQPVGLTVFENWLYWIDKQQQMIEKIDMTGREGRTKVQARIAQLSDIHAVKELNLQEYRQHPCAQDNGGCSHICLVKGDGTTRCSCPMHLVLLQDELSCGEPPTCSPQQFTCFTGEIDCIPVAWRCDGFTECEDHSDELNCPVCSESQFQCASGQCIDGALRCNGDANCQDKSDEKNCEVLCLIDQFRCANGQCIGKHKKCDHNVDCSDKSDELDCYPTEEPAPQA

B1: Recombinant Human VSTM2A His-tag Protein (R&D, 10037-VT) (ligand, UniProt Q8TAG5 25-236, looked up)
chain: SQAKFTEFPRNVTATEGQNVEMSCAFQSGSASVYLEIQWWFLRGPEDLDPGAEGAGAQVELLPDRDPDSDGTKISTVKVQGNDISHKLQISKVRKKDEGLYECRVTDANYGELQEHKAQAYLKVNANSHARRMQAFEASPMWLQDMKPRKNVSAAIPSSIHGSANQRTHSTSSPQVVAKIPKQSPQSGARIATSHGLSVLLLVCGFVKGALL
notes: human VSTM2A, commercial recombinant protein; also called recombinant VSTM2A; VSTM2A pure protein; source: bought: R&D

Tests used:
DKK1 (Homo sapiens) = DKK1 (Homo sapiens) (UniProt O94907); test: SPR; conditions: cited from earlier work
[1] = target: T1, recombinant human LRP-6 Fc Chimera …; test: ELISA; titration ELISA; 5 ug/ml LRP-6 Fc immobilised on the plate at 4 °C for 12 h, blocked with 5% BSA in PBS; VSTM2A His-tag serial dilution (start 100 ug/ml, factor 4) for 2 h at room temperature, in duplicate; interaction fixed by DTSSP; pNPP read at OD405; conditions: both partners purified

Sequence of DKK1 (Homo sapiens) (O94907 32-266): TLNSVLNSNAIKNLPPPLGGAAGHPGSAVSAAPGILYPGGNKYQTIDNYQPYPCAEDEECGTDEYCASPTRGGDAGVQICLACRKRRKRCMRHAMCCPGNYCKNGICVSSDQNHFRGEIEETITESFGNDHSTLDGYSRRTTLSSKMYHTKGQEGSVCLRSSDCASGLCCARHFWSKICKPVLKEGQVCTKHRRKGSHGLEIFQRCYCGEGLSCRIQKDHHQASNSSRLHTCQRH

Molecule | Kd (DKK1 (Homo sapiens)) [nM] | Kd [1] [nM]
LRP6 (from UniProt O75581) | 0.6 | –
B1 | – | 9.19
